Reference: the supplement of paper PMC12764529
± gives the half width of the 95% confidence interval.

Tests used:
[1] = folding stability dG unfold from trypsin proteolysis; higher = more stable
How it was run: (§1)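 How resistant each design was to proteolysis was captured as K50, inferred by Bayesian fitting of sequencing counts. Unfolding free energy was then derived relative to a sequence-predicted unfolded-state K50 and a shared folded-state K50, per protease or combined. Digestion used trypsin and chymotrypsin at 11 threefold-diluted concentrations plus a no-protease condition, on mini-proteins under 80 residues without cysteine in a PA-tagged cDNA display construct. Designs were kept only when AlphaFold2 dimer inter-PAE was above 15.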

[2] = folding stability dG unfold from chymotrypsin proteolysis; higher = more stable
How it was run: as §1

[3] = folding stability dG unfold (combined trypsin and chymotrypsin); higher = more stable
How it was run: as §1

Sequence	folding stability dG unfold [1]	folding stability dG unfold [2]	folding stability dG unfold [3]
SAGMPKPIRLLVRNPETGKYFLVEVEEPEELVTVTLLDPETGEVRAVFEGPLEEIIAALEAEGFEVEPVSAG [r5_291_TrMRF]	4.47 ± 0.16 kcal/mol	4.438 ± 0.042 kcal/mol	4.442 ± 0.036 kcal/mol
SAGMPKPLVLPVVLPDDGATVEVVFDPVEKRIEIRVFKPGHRERAREFAEGIAALFEELGYEVEITDDSAGG [r19_354_TrMRF]	2.3 ± 0.084 kcal/mol	1.27 ± 0.091 kcal/mol	1.91 ± 0.12 kcal/mol
SAGMPLASVEVEIEKLPDGTYRVRARITIWDPVTGKPLREVEFEGPFESPEAAEAEALKKALEVLEADSAGG [r19_255_TrMRF]	4.25 ± 0.18 kcal/mol	4 ± 0.11 kcal/mol	4.06 ± 0.13 kcal/mol
SAGMPPVKVEIEVYPVRVEGELLYIAKIVRPDGSVLVIAFKPEELIEAIKKEFPDIEEIKFSPFETPPESAG [r5_25_TrMRF]	3.3 ± 0.095 kcal/mol	3.579 ± 0.022 kcal/mol	3.48 ± 0.054 kcal/mol
SAGMPYIKVKITVIHPDNKEKEAEFVFDLKDGKIDLKPEVIEKALEELGIPKDYEIKIEIVEIKEPDESAGG [r19_287_TrMRF]	2.5 ± 0.13 kcal/mol	2.82 ± 0.16 kcal/mol	2.81 ± 0.16 kcal/mol
SAGMQLLPSATVTLTNPKTGETTTVSVQALRDELAARRGTTDPAAITEADIEAWAKEQGYDPITFTLPSAGG [r19_67_JUSTAS]	2.96 ± 0.069 kcal/mol	2.55 ± 0.027 kcal/mol	2.78 ± 0.076 kcal/mol
SAGMSLEEIAKEFAKKKGLKKVEIKYYPEKKTYEIKVYLEEPGEPKTATIKVEDVTPETFKKAIEEILESAG [r5_896_TrMRF]	3.61 ± 0.32 kcal/mol	4.75 ± 0.16 kcal/mol	4.83 ± 0.41 kcal/mol
SAGMSLEELAKELAKKLNIEKVEIKYDKETNKVTIKIYFKKNKKKITITIKKENMTPEEIKKLLEEILKSAG [r5_896_TrROS_Hall]	2.9 ± 0.12 kcal/mol	4.51 ± 0.098 kcal/mol	4.41 ± 0.19 kcal/mol
SAGMSPELLEALRKAAEEEGLEVVEIKVEKLPNGEVKITIRLKNGKEIKEITLPKDVKTPEEALKLIRESAG [r5_352_TrROS_Hall]	4.82 ± 0.34 kcal/mol	4.04 ± 0.081 kcal/mol	4.31 ± 0.1 kcal/mol
SAGMSVTLEFTDPDKSAEELKEEIMKKVGIPENYPVKVTETPSPADGYTLTITVDDPKVAEAIKKALSSAGG [r19_215_JUSTAS]	1.26 ± 0.037 kcal/mol	1.742 ± 0.016 kcal/mol	1.57 ± 0.066 kcal/mol
SAGMTAEELAAEALAKLPPGAKEVTVEIEVNGELVTVTITVEAAPPPPPPEETITTVDEDTGEVREETLSAG [r5_236_TrROS_Hall]	1.44 ± 0.058 kcal/mol	0.119 ± 0.034 kcal/mol	0.854 ± 0.068 kcal/mol
SAGMTEEELKKLKEKFPNLKIEPVKTITIKVEPNASVEEIAKKLKELLNIDKVEIEVNEETGEITIRIYSAG [r5_694_TrROS_Hall]	2.98 ± 0.15 kcal/mol	4.07 ± 0.16 kcal/mol	3.69 ± 0.23 kcal/mol
SAGMTFEAEVKEKTIYIPEINNIIKIKIVNLKPPEGPIIPIIKIEFYVSENTTPEDIIKLLKELNIPVESAG [r5_486_TrMRF]	2.09 ± 0.16 kcal/mol	2.11 ± 0.024 kcal/mol	2.07 ± 0.099 kcal/mol
SAGMTFPPGMTIEELKELLKKLGIKEVTVTYDKETNTVTVTVTVEGKTITITVTLPAPPVVVKEEGEEKSAG [r5_899_TrROS_Hall]	1.77 ± 0.059 kcal/mol	3 ± 0.1 kcal/mol	2.53 ± 0.17 kcal/mol
SAGMTIRIVVPKKDMSVEELAKKLKEELGLPEDAKVTIKVEKLPNGELVLTITVPSEEERKKIEELLKSAGG [r19_215_TrROS_Hall]	2.9 ± 0.13 kcal/mol	2.91 ± 0.15 kcal/mol	2.98 ± 0.25 kcal/mol
SAGMTIVIEIPSSTSYEDAVKAIKKIAKEIKEKGKKFKIVVLTKDPKIAEAIKKALEELGIPLEVKIGSAGG [r19_268_TrMRF]	2.77 ± 0.07 kcal/mol	2.91 ± 0.043 kcal/mol	2.93 ± 0.059 kcal/mol
SAGMTLTIEVLIKVETPEEARKAAEELARRLAEEGYTVTVEVVKVEEVTLPDGSKYYRVTVKVTVEPAPSAG [r5_158_TrROS_Hall]	5.08 ± 0.38 kcal/mol	5.62 ± 0.15 kcal/mol	5.78 ± 0.31 kcal/mol
